# Test results: patent US20210070829A1 (ZHEJIANG DOER BIOLOGICS, published 2021)
# Substitutions are numbered along the chain they refer to.
# B1: C240 L13F10L9M2 (Fc fusion)
# chain: HSQGTFTSDYSKYLDERAAQDFVQWLMNGGPSSGAPPPSGGGGSGGGGSGGGGSAESKYGPPCPPCPAPEAAGGPSVFLFPPKPKDTLMISRTPEVTCVVVDVSQEDPEVQFNWYVDGVEVHNAKTKPREEQFASTYRVVSVLTVLHQDWLNGKEYKCKVSNKGLPSSIEKTISKAKGQPREPQVYTLPPSQEEMTKNQVSLTCLVKGFYPSDIAVEWESNGQPENNYKTTPPVLDSDGSFFLYSRLTVDKSRWQEGNVFSCSVMHEALHNHYTQKSLSLSLGGGGGSGGGGSGGGGSHPIPDSSPLLQFGGQVRQRYLYTDDAQQTEAHLEIREDGTVGGAADQSPESLLQLKALKPGVIQILGVKTSRFLCQRPDGALYGSLHFDPEACSFRERLLEDGYNVYQSEAHGLPLHCPGNKSPHRDPAPRGPCRFLPLPGLPPALPEPPGILAPQPPDVGSSDPLSMVGGSQGRSPSYES
# B2: C225 L10F10L14M2 (Fc fusion)
# chain: HSQGTFTSDYSKYLDERAAQDFVQWLMNTGPSSGAPPPSGGGGAGGGGAGGGGAESKYGPPCPPCPAPEAAGGPSVFLFPPKPKDTLMISRTPEVTCVVVDVSQEDPEVQFNWYVDGVEVHNAKTKPREEQFASTYRVVSVLTVLHQDWLNGKEYKCKVSNKGLPSSIEKTISKAKGQPREPQVYTLPPSQEEMTKNQVSLTCLVKGFYPSDIAVEWESNGQPENNYKTTPPVLDSDGSFFLYSRLTVDKSRWQEGNVFSCSVMHEALHNHYTQKSLSLSLGGGGGAGGGGAGGGGASHPIPDSSPLLQFGGQVRQRYLYTDDAQQTEAHLEIREDGTVGGAADQSPESLLQLKALKPGVIQILGVKTSRFLCQRPDGALYGSLHFDPEACSFRERLLEDGYNVYQSEAHGLPLHCPGNKSPHRDPAPRGPCRFLPLPGLPPALPEPPGILAPQPPDVGSSDPLSMVGGSQGRSPSYES
# B3: C495 L9F10L9M1 (Fc fusion)
# chain: HSQGTFTSDYSKYLDEQAAQDFVQWLMNGGPSSGAPPPSGGGGSGGGGSGGGGSESKYGPPCPPCPAPEAAGGPSVFLFPPKPKDTLMISRTPEVTCVVVDVSQEDPEVQFNWYVDGVEVHNAKTKPREEQFASTYRVVSVLTVLHQDWLNGKEYKCKVSNKGLPSSIEKTISKAKGQPREPQVYTLPPSQEEMTKNQVSLTCLVKGFYPSDIAVEWESNGQPENNYKTTPPVLDSDGSFFLYSRLTVDKSRWQEGNVFSCSVMHEALHNHYTQKSLSLSLGGGGGSGGGGSGGGGSHPIPDSSPLLQFGGQVRQRYLYTDDAQQTEAHLEIREDGTVGGAADQSPESLLQLKALKPGVIQILGVKTSRFLCQRPDGALYGSLHFDPEACSFRERLLEDGYNVYQSEAHGLPLHLPGNKSPHRDPAPRGPARFLPLPGLPPALPEPPGILAPQPPDVGSSDPLSMVGGSQGRSPSYES
# B4: C382 L13F10L9M1 (Fc fusion)
# chain: B1 chain with E16S, R17Q, C416L, C432A
# Target: Glucagon receptor
# Assay: cell-based or functional assay
row,Binder,GCGR agonist activity EC50 (luciferase reporter)
1,B1,1.25 nM
2,B2,1.17 nM
3,B3,1.43 nM
4,B4,1.27 nM

# Target: human GLP-1 receptor (human, UniProt P43220 24-463)
# Assay: cell-based or functional assay
row,Binder,GLP-1R agonist activity EC50 (luciferase reporter)
1,B1,1.21 nM
2,B2,1.42 nM
3,B3,1.21 nM
4,B4,1.13 nM

# Target: FGFR/β-Klotho receptor complex
# Assay: cell-based or functional assay
row,Binder,FGF21 activity EC50 (luciferase reporter)
1,B1,0.89 nM
2,B2,0.85 nM
3,B3,0.84 nM
4,B4,0.76 nM
